We go through 15 sequences from the DeepSol protein solubility set.

The nature of this series: soluble on expression in E. coli; label from the status in PepcDB or PDB records.
On to “MGSDKIHHHHHHMLTTCKSVLKLPYLEKIKVVAGEKGLNRIITWVQVVEYPEYSKWLKGGELILISGIAIKNNINSLVNFIRDINSRSLSGIVISIGPYIKEIPKEVIEIGNQLDFPIFEIPFEVKFIDVSQSICKAIFANKVNQESMENFMKDIIFRDFTFSEDILSRAVAYGYNPKTKYISFVVELHNEKDMLECDLKTKQYIEQIVIEVLGEWNKRSIHIMQYNSIILMLPKNEKRTIKNIAMNIIEEIISKAKNTSVNIGVGGEFSELRDFKISVSEAHRCLKVLKLNNDNNTVISYDELGIYKLFFQMDNLEEMKKFYLDVLKKLIDYDSKNTTELMNTLEMYIKESTNINRTAEKLFIHRNTLKYRIRRIEEITKCSLKDVNVLFNFDTALKIKKFLTMENAV”, for which the “soluble on expression in E. coli” value is on record as “not soluble”.

With “MGSDKIHHHHHHMLRGMYTASGAMQALQRQQEMLSNNLANARTPGFRADQASLRTFPEMMIQQSGVNEQSGVRSRGTVGKLATGVFMQAATPNFALGSITETGNATDLQISSLEGAALFTIRHADPATGEEETLYTTNGQFAVGQDGLLRTTENDLVLGDAGQPLNVVNEDFTVSADGAVTDGNGQAIGNLGLVVTNQPETLERTGNGLFRSPDALNGGAIKVDQGVLELGNVEVEQTMTEMNAGLRQFEANQKVIQAYDRTAEKAVSEIGRVR”, the “soluble on expression in E. coli” value was “not soluble”.

With “MKRIGVLTSGGDSPGMNAAIRSVVRKAIYHGVEVYGVYHGYAGLIAGNIKKLEVGDVGDIIHRGGTILYTARCPEFKTEEGQKKGIEQLKKHGIEGLVVIGGDGSYQGAKKLTEHGFPCVGVPGTIDNDIPGTDFTIGFDTALNTVIDAIDKIRDTATSHERTWVIEVMGRHAGDIALYSGLAGGAETILIPEADYDMNDVIARLKRGHERGKKHSIIIVAEGVGSGVDFGRQIQEATGFETRVTVLGHVQRGGSPTAFDRVLASRLGARAVELLLEGKGGRCVGIQNNQLVDHDIAEALANKHTIDQRMYALSKELSI”, the “soluble on expression in E. coli” value is on record as “soluble”.

Turning to “MGSDKIHHHHHHACDNSDRIETETQANGVLLNFNASTIDATTTETRSFVPIEGFAKNEYIFGMSVTKDNASRGEIFEGSRNLKATMSRPSGDAPWNWEFSNNASGTVVTPRGPEGKPLRVIAYYPAIAGTENFTDGIPFDFTQTNNPQQKEILYNTNTSYTIPSSGGSDKVTIPLKFQHAYSWISIKVTKSVDKGSHKLSGVSIDNLSGGWIKNKGKINPATGMAMQGAIQGPIGEVRTAEVLDPSGDTATPIIYDFLVPAFMDRNVKDDDLVFTLIIDGKKEIFSLGREHLNNDGDTYGFKQGYVNTYNVEFNNSSLNMRLLNWTSTRIDGDFGQNVTNPTNYQEMSFYYAEDNGGWTTANGKVFPPKYKDLPAGDRRYYNYLTTVKYGGNGEYVPAKPVTDPPPPKGIIIEDDANVATQEPACRLFQMTTKDVSIEPVPWEDEMGQLVAKELCRKYNGGGFKDWRLPRASELRALLVYAIYGAGTKQFINLKLTNDVNREKLYWTGTEESEDKAWAMLYYDDNTLVGRGPNISAQDKSTRLSVRCIRQLQ”, the “soluble on expression in E. coli” value was “not soluble”.

Turning to “ESIYIQSPYFIPDQAFLDSIKIAALGGVDVNIMVPNKRDHPFVYWATLKNVASLLEAGVNVYHYDNGFLHSKTLVIDDEVASVGTANMDNRSFTLNFEVNAFIYDEGVARSLKQAFINDMKLSNKLTSEEYAKR”, the “soluble on expression in E. coli” value is listed as “not soluble”.

With “SNAMLSANQIKFLRSLRERKYRLREQAFAVEGPKLVGEMLPFYRCRMLVGTAAMLRAVSTPHDAEVVELPESFDFKRISTQTTPQPLMAVFDLPAEPEPVVEGLTLLLDGVQDPGNVGTILRTADWFGIRHVWLGTGSADVFSPKVVQASMGALARVQPTPLKNTVDTLAYFRRQGIPVYGAFLDGQSLYEAPLPNFTEPAILVLGSEGRGISPEVAAEITDRLTIPASGLSVKGHTESLNVAIATAILCSEWRRRS”, the “soluble on expression in E. coli” value is “soluble”.

“MSLIRPQLDDIQTAQAQEKNLLNEFREKQSKLRNLQQYQHQLEEMRASFNQQLTQLPKESEIPGLVEDINMTGVNSGLKFKNIRLENEVKQEFFIEQPISIEATGDYHAFGAFVSGIAALPRIVTLHDFVIEAKQSKEKTDIPEVDYAVKAKTYRYIGVDEQGNASAVQANTSTTTPAQGGTPEGHHHHHH”: the “soluble on expression in E. coli” value is recorded as “soluble”.

Consider “MDSKAIAERIKKLQAQQEHVRIGGKGTPRRKKKVIHKTAAADDKKLQSNLKKLSVTNIPGIEEVNMIKDDGTVIHFNNPKVQTSVPANTFSVTGSADNKQITEMLPGILNQLGPESLTHLKKLANNVTKLGPDGKGEDEDVPELVGDFDAASKNETKADEQ”, for which the “soluble on expression in E. coli” value is recorded as “soluble”.

For the sequence “SLVQHFDTLLVNIGQLLPMESKGPKRGKEMSELQLLEHAALGIRDGKVAFIGTMVEADTFTANQMIDCQGKLVTPGLVDPHTHLIFGGSREHEMALKQQGVPYLEILKNGGGILATVEATRAASEEELITKAICHLNRMLSYGVTTIEAKSGYGLDRETEWKQLRAAKAVGEQHPIDIVSTFLGAHAIPTSHRNDPDRFLDEMADMLGEIKEQNLAEFVDIFTETGVFTVEQSRTFLQKAKERGFGLKLHADEIDPLGGAELAGELGAISADHLVGASDQGIQKMAAAGTIACLLPGTTFYLGKDTYARARDMIDQGLAVTISTDFNPGSSPTENLQLIMSIAALRLKMTPEEIWHAVTVNGAHAIGRGDTAGQLAVGRAADVVVWDAKNYYYVPYHYGVNHVHSVWKKGEVVYERRRAFEGLSISR”, the “soluble on expression in E. coli” value was “soluble”.

As for “MSLALFYGRKITVAGISKRGSETALEISEKLSEKGLAVKCYSRSNLKGCNTYIGSTQNFVLSEVRKSDVLVLVMSLGGAVRIIEKASILKEEGIAVIVVDDYGRYAIPIVNGHSGSANVFARLISELIGSEYIITDAVELNGLMSVEEMSRRLYCTIANPECVLKINTALANGDPVFARNESSKRKHAFEMIKYPWKTYSRSDDAKIIITDRPGEGGEICYLVPDDISVGIGFTGKADPYNIKKRIEEVLLSLGLGYDDVNCVSSLRYNKFLSELIKDNGTEFRTFSADDLKSVDVSLLSHISEEAEEKLGIPGSAEPSALLSLGPGSRIIYPFTKFDHSMTISVASRREGHHHHHH”, the “soluble on expression in E. coli” value is recorded as “soluble”.

“MQDDPRYRVEVEVSPRFLAHQSTPEEGRYAFAYSIRIQNAGAVPARLIARHWKITDANGRTEQVDGEGVVGEQPRLRPGEAFHYTSGVLLETEQGQMQGYYDMVADDGTEFTAPIAAFVLSVPRTLHLEHHHHHH”: the “soluble on expression in E. coli” value is given as “soluble”.

On to “MGSDKIHHHHHHMTREYGTGEIFHQMGDRVDALHYVLEGHVVAKAVTPEGVERYVLGFLPGTIFGQSPFFNRAPAETLFVSVGHTVAVALGRDYIYGEVAQRHPSLLLNLLESDAYRHRVFGRHIADATLRDLETRLCRFILHLVTEASDPVPVEQALTDAAAEVHPRTGDEGAEGPADCPARCHSGASALFSHPGLTHEDVARYLGLHRVTVSNLLGGLRRAGVLGQFNRKVIEVCDGAELVARAGMSGDGDRWP”, for which the “soluble on expression in E. coli” value is listed as “not soluble”.

With “MAQGEKITVSNGVLNVPNNPIIPFIEGDGTGPDIWNAASKVLEAAVEKAYKGEKKITWKEVYAGEKAYNKTGEWLPAETLDVIREYFIAIKGPLTTPVGGGIRSLNVALRQELDLFVCLRPVRYFTGVPSPVKRPEDTDMVIFRENTEDIYAGIEYAKGSEEVQKLISFLQNELNVNKIRFPETSGIGIKPVSEEGTSRLVRAAIDYAIEHGRKSVTLVHKGNIMKFTEGAFKNWGYELAEKEYGDKVFTWAQYDRIAEEQGKDAANKAQSEAEAAGKIIIKDSIADIFLQQILTRPNEFDVVATMNLNGDYISDALAAQVGGIGIAPGANINYETGHAIFEATHGTAPKYAGLDKVNPSSVILSGVLLLEHLGWNEAADLVIKSMEKTIASKVVTYDFARLMDGATEVKCSEFGEELIKNMD”, the “soluble on expression in E. coli” value is “soluble”.

“MGHHHHHHSHEVFKNAQPPIRDATDLRENMQNAVVSFKELCGLSSVANLMQCMLAVSPRFLGPDNTPLVVLNLSEQYPTMELQGIVPEVLKKIVTTYDMMIQSLKALIENADAVYEKIVHCQKAAMEFHEHLHSIGTKEGLKERKLQKAVESFTWNITILKGQADLLKYAKNETLENLKQIHFAAVSCGLNKPGTENADVQKPRRSLEVIPEKANDETGE”: the “soluble on expression in E. coli” value is listed as “not soluble”.

Turning to “MHESIQMIIDRIDHLVLTVSDISTTIRFYEEVLGFSAVTFKQNRKALIFGAQKINLHQQEMEFEPKASRPTPGSADLCFITSTPINDVVSEILQAGISIVEGPVERTGATGEIMSIYIRDPDGNLIEISQYVLEHHHHHH”, the “soluble on expression in E. coli” value is on record as “not soluble”.
